B1: ATPase GET3 (Saccharomyces cerevisiae), Q12154 (parent)
chain: MDLTVEPNLHSLITSTTHKWIFVGGKGGVGKTTSSCSIAIQMALSQPNKQFLLISTDPAHNLSDAFGEKFGKDARKVTGMNNLSCMEIDPSAALKDMNDMAVSRANNNGSDGQGDDLGSLLQGGALADLTGSIPGIDEALSFMEVMKHIKRQEQGEGETFDTVIFDTAPTGHTLRFLQLPNTLSKLLEKFGEITNKLGPMLNSFMGAGNVDISGKLNELKANVETIRQQFTDPDLTTFVCVCISEFLSLYETERLIQELISYDMDVNSIIVNQLLFAENDQEHNCKRCQARWKMQKKYLDQIDELYEDFHVVKMPLCAGEIRGLNNLTKFSQFLNKEYNPITDGKVIYELEDKE

Here are results for one variant from IntAct's records for PubMed 19675567.

Variants of B1 are the subject of the test. The settings on record: with sc61b_human SEC61B.
As for C285S;C288S, the “effect of a mutation on the interaction” value is “decreasing interaction”.
